Target: dynein-dynactin complex (pig brain dynein with pig brain dynactin) (pig (endogenous in pig brain)) (UniProt F2Z5G5)
Assay: negative-stain EM

- Kd: 5.11 µM
Substance: full-length BicdR1 (from UniProt A0JNT9 1-577) (natural protein)

— PMC11722432
